What was measured:
[1] = biological target: T1, human TNFR1, soluble recombinant protein (human, UniProt P19438 22-211, limits assumed, biotinylated in the BIAcore assays (coupling via primary amines)); assay: phage ELISA, plate coated with 1 nM TNFR1, anti-M13-HRP; trypsin 0 µg/ml; phage input 1.41E+09
T1 construct: also called biotinylated TNFR1; human recombinant E. coli-expressed human TNFR1
T1 sequence (looked up): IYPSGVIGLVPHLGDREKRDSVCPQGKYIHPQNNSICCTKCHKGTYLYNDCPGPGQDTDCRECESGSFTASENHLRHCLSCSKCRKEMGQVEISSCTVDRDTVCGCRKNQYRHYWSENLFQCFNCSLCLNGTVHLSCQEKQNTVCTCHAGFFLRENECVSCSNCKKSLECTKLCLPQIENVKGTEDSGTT

[2] = biological target: T1, human TNFR1, soluble recombinant protein; assay: phage ELISA, plate coated with 1 nM TNFR1, anti-M13-HRP; trypsin 100 µg/ml 1 h room temp; phage input 7.05E+08
[3] = biological target: T1, human TNFR1, soluble recombinant protein; assay: phage ELISA, plate coated with 1 nM TNFR1, anti-M13-HRP; trypsin 100 µg/ml 1 h room temp; phage input 4.51E+10
[4] = biological target: T1, human TNFR1, soluble recombinant protein; assay: phage ELISA, plate coated with 1 nM TNFR1, anti-M13-HRP; trypsin 10 µg/ml 1 h room temp; phage input 1.41E+09
[5] = biological target: T1, human TNFR1, soluble recombinant protein; assay: phage ELISA, plate coated with 1 nM TNFR1, anti-M13-HRP; trypsin 1 mg/ml 1 h room temp; phage input 3.52E+08
[6] = biological target: T1, human TNFR1, soluble recombinant protein; assay: phage ELISA, plate coated with 1 nM TNFR1, anti-M13-HRP; trypsin 0 µg/ml; phage input 5.64E+09
[7] = biological target: T1, human TNFR1, soluble recombinant protein; assay: phage ELISA, plate coated with 1 nM TNFR1, anti-M13-HRP; trypsin 10 µg/ml 1 h room temp; phage input 2.82E+09
[8] = biological target: T1, human TNFR1, soluble recombinant protein; assay: phage ELISA, plate coated with 1 nM TNFR1, anti-M13-HRP; trypsin 0 µg/ml; phage input 2.82E+09
[9] = biological target: T1, human TNFR1, soluble recombinant protein; assay: phage ELISA, plate coated with 1 nM TNFR1, anti-M13-HRP; trypsin 1 mg/ml 1 h room temp; phage input 2.82E+09
[10] = biological target: T1, human TNFR1, soluble recombinant protein; assay: phage ELISA, plate coated with 1 nM TNFR1, anti-M13-HRP; trypsin 1 mg/ml 1 h room temp; phage input 1.41E+09
[11] = biological target: T1, human TNFR1, soluble recombinant protein; assay: phage ELISA, plate coated with 1 nM TNFR1, anti-M13-HRP; trypsin 100 µg/ml 1 h room temp; phage input 1.41E+09
[12] = biological target: T1, human TNFR1, soluble recombinant protein; assay: phage ELISA, plate coated with 1 nM TNFR1, anti-M13-HRP; trypsin 0 µg/ml; phage input 4.51E+10
[13] = biological target: T1, human TNFR1, soluble recombinant protein; assay: phage ELISA, plate coated with 1 nM TNFR1, anti-M13-HRP; trypsin 1 mg/ml 1 h room temp; phage input 2.26E+10
[14] = biological target: T1, human TNFR1, soluble recombinant protein; assay: phage ELISA, plate coated with 1 nM TNFR1, anti-M13-HRP; trypsin 1 mg/ml 1 h room temp; phage input 1.13E+10
[15] = biological target: T1, human TNFR1, soluble recombinant protein; assay: phage ELISA, plate coated with 1 nM TNFR1, anti-M13-HRP; trypsin 10 µg/ml 1 h room temp; phage input 1.13E+10
[16] = biological target: T1, human TNFR1, soluble recombinant protein; assay: phage ELISA, plate coated with 1 nM TNFR1, anti-M13-HRP; trypsin 1 mg/ml 1 h room temp; phage input 4.51E+10
[17] = biological target: T1, human TNFR1, soluble recombinant protein; assay: phage ELISA, plate coated with 1 nM TNFR1, anti-M13-HRP; trypsin 10 µg/ml 1 h room temp; phage input 2.26E+10
[18] = biological target: T1, human TNFR1, soluble recombinant protein; assay: phage ELISA, plate coated with 1 nM TNFR1, anti-M13-HRP; trypsin 0 µg/ml; phage input 1.13E+10
[19] = biological target: T1, human TNFR1, soluble recombinant protein; assay: phage ELISA, plate coated with 1 nM TNFR1, anti-M13-HRP; trypsin 1 mg/ml 1 h room temp; phage input 5.64E+09
[20] = biological target: T1, human TNFR1, soluble recombinant protein; assay: phage ELISA, plate coated with 1 nM TNFR1, anti-M13-HRP; trypsin 0 µg/ml; phage input 7.05E+08

Q: How did the phage ELISA read-out [1] turn out when DOM1h-131 displayed on phage was run?
A: Its phage ELISA read-out is 0.85.

Q: What about the phage ELISA read-out [2] of the same substance?
A: The phage ELISA read-out was 0.084.

Q: What about the phage ELISA read-out [3] of the same substance?
A: The phage ELISA read-out was 0.418.

Q: What about the phage ELISA read-out [4] of the same substance?
A: Its phage ELISA read-out is 0.409.

Q: And the phage ELISA read-out [5]?
A: Its phage ELISA read-out is 0.08.

Q: And the phage ELISA read-out [6]?
A: The phage ELISA read-out was 0.962.

Q: What about the phage ELISA read-out [7] of the same substance?
A: Its phage ELISA read-out is 0.573.

Q: What about the phage ELISA read-out [8] of the same substance?
A: The phage ELISA read-out was 0.946.

Q: And the phage ELISA read-out [9]?
A: Its phage ELISA read-out is 0.114.

Q: And the phage ELISA read-out [10]?
A: Its phage ELISA read-out is 0.089.

Q: What about the phage ELISA read-out [11] of the same substance?
A: Its phage ELISA read-out is 0.115.

Q: And the phage ELISA read-out [12]?
A: The phage ELISA read-out was 0.916.

Q: And the phage ELISA read-out [13]?
A: The phage ELISA read-out was 0.229.

Q: And the phage ELISA read-out [14]?
A: The phage ELISA read-out was 0.183.

Q: What about the phage ELISA read-out [15] of the same substance?
A: The phage ELISA read-out was 0.86.

Q: What about the phage ELISA read-out [16] of the same substance?
A: Its phage ELISA read-out is 0.284.

Q: And the phage ELISA read-out [17]?
A: The phage ELISA read-out was 0.802.

Q: What about the phage ELISA read-out [18] of the same substance?
A: Its phage ELISA read-out is 0.949.

Q: And the phage ELISA read-out [19]?
A: Its phage ELISA read-out is 0.133.

Q: What about the phage ELISA read-out [20] of the same substance?
A: The phage ELISA read-out was 0.705.

Source: US20100260763A1 (DOMANTIS, published 2010)
